Data from patent US20220306762A1 (CRYSTAL BIOSCIENCE, published 2022).

Assays:
[1] = molecular target: T1, His-tagged human CD38 (ACRO Biosystems cat #CD8-H5224) (human, UniProt P28907 43-300); test: SPR, captured scFv-Fc, His-CD38 analyte;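 further: SPR on a Carterra LSA, scFv-Fc captured by anti-human Fc on HC30M chip, His-tagged CD38 (human, mouse, cynomolgus) flowed as analyte in eight 1:2 steps from 400 nM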
T1 construct: bought recombinant protein with His tag

[2] = molecular target: T2, His-tagged mouse CD38 (ACRO Biosystems #CD8-M5223) (mouse, UniProt P56528 45-304); test: SPR, captured scFv-Fc, His-CD38 analyte;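 further: SPR on a Carterra LSA, scFv-Fc captured by anti-human Fc on HC30M chip, His-tagged CD38 (human, mouse, cynomolgus) flowed as analyte in eight 1:2 steps from 400 nM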
T2 construct: bought recombinant protein with His tag; also called Murine
T2 sequence (looked up): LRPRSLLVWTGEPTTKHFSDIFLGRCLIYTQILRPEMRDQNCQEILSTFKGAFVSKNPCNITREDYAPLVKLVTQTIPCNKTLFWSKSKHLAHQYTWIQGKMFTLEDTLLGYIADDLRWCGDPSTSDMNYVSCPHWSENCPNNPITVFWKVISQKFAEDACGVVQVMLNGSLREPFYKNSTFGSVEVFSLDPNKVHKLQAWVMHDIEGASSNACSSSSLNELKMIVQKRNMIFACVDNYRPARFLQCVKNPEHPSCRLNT

[3] = molecular target: T3, His-tagged cynomolgus monkey CD38 (ACRO Biosystems cat #CD8-05223) (cynomolgus monkey, UniProt Q5VAN0 43-301); test: SPR, captured scFv-Fc, His-CD38 analyte;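 further: SPR on a Carterra LSA, scFv-Fc captured by anti-human Fc on HC30M chip, His-tagged CD38 (human, mouse, cynomolgus) flowed as analyte in eight 1:2 steps from 400 nM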
T3 construct: bought recombinant protein with His tag

[4] = molecular target: T1, His-tagged human CD38 (ACRO Biosystems …); test: ELISA, coated His-CD38
[5] = molecular target: T2, His-tagged mouse CD38 (ACRO Biosystems …); test: ELISA, coated His-CD38
[6] = molecular target: T3, His-tagged cynomolgus monkey CD38 (ACRO …); test: ELISA, coated His-CD38
[7] = molecular target: T4, human CD38 on transiently transfected Expi293 cells (Origene #SC321273) (human, UniProt P28907 1-300); test: flow cytometry, transfected Expi293 cells;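 further: antibody binding to Expi293 cells transiently expressing human or murine CD38, antibodies applied at 10 ug/ml for 60 min on ice, read by flow cytometry as percent gated cells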
T4 construct: whole, on cells; also called Human (FACs)

[8] = molecular target: T5, murine CD38 on transiently transfected Expi293 cells (Origene MC208001) (murine, UniProt P56528 1-304); test: flow cytometry, transfected Expi293 cells;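 further: antibody binding to Expi293 cells transiently expressing human or murine CD38, antibodies applied at 10 ug/ml for 60 min on ice, read by flow cytometry as percent gated cells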
T5 construct: whole, on cells; also called Murine (FACs)
T5 sequence (looked up): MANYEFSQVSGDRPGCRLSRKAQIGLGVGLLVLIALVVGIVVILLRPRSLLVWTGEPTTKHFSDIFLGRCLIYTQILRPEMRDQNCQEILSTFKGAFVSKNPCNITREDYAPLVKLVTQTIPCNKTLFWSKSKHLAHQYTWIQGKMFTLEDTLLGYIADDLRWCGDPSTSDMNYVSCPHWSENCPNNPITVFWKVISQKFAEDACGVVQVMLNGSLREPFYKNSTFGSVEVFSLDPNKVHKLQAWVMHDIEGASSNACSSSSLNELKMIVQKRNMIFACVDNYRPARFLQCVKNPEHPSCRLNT

Binder	Kd [1]	Kd [2]	Kd [3]	ELISA 1 ug/ml [4]	ELISA 1 ug/ml [5]	ELISA 1 ug/ml [6]	FACs 10 ug/ml (percent gated) [7]	FACs 10 ug/ml (percent gated) [8]
40566p1.A7 (scFv, V domains shown, tested as scFv-Fc supernatant) VH: RELVESGGGVVRPGESLRLSCAASGFTFDNYDMTWVRQAPGEGLEWVSFISSRGTFTYYTDSVRGRFTISRDNSKNTLYLEMNSLRAEDTAIYYCAKDSGEYYFFDYWGLGTLVTVSS VL: EIVMTQSPATLSVSPGERATFSCRASQSVNSKLAWYQQKPGQAPRLLIYGASRRATGIPDRFSGSGSGTEFTLTISSLQSEDFAVYYCQQYYDWPPLTFGGGTKVEIK	202000 nM	1.31 nM	2.66 nM	1.99	2.12	1.85	14.2%	72.8%
40566p1.D2 (scFv, V domains shown, tested as scFv-Fc supernatant) VH: DVQLVESGGGVVRPGESLRLSCAASGFTFDNYDMTWVRQAPGEGLEWVSFISSRGTFTYYTDSVKGRFTISRDNSKNTLYLQMNSLRAEDTAIYYCTKDSGEYYFFDYWGLGTLVTVSS VL: EIVMTQSPATLSVSPGERATFSCRASQSVNSKLAWYQQKPGQAPRLLIYGASRRATGIPDRFSGSGSGTEFTLTISSLQSEDFAVYYCQQYYDWPPLTFGGGTKVEIK	11.8 nM	1.74 nM	29.8 nM	1.96	1.74	1.83	20.1%	71.2%
40566p1.A12 (scFv, V domains shown, tested as scFv-Fc supernatant; also called 40566p1.Al2) VH: DVQLVESGGGVVRPGESLRLSCAASGFTFDNYDMTWVRQAPGEGLEWVSFISSRGTFTYYTDSVKGRFTISRDNSKNTLYLQMNSLRAEDTAIYYCTKDSGEYYFFDYWGLGTLVTVSS VL: EIVMTQSPATLSVSPGERATFSCRASQSVNSKLAWYQQKPGQAPRLLIYDASRRATGIPDRFSGSGSGTEFTLTISSLQSEDFAVYYCQQYYDWPPLTFGGGTKVEIK	–	1.03 nM	–	1.98	1.99	1.89	25.2%	72.6%
40566p1.A8 (scFv, V domains shown, tested as scFv-Fc supernatant) VH: DVQLVESGGGVVRPGESLRLSCAASGFTFDNYDMTWVRQAPGEGLEWVSFISSRGTFTYYTDSVKGRFTISRDNSKNTLYLQMNSLRAEDTAIYYCAKDSGEYYFFDYWGLGTLVTVSS VL: EIVMTQSPATLSVSPGERATFSCRASQSVNSKLAWYQQKPGQAPRLLIYGASRRATGIPDRFSGSGSGTEFTLTISSLQSEDFAVYYCQQYYDWPPLTFGGGTKVEIK	0.872 nM	5.81 nM	–	1.87	1.9	1.9	17.8%	70.8%
40566p1.B12 (scFv, V domains shown, tested as scFv-Fc supernatant) VH: DVQLVESGGGVVRPGESLRLSCAASGFTFDNYDMTWVRQAPGEGLEWVSFISSRGIFTYYADSVKGRFTISRDNSKNTLYLQMNSLRAEDTAIYYCAKDSGEYYFFDYWGLGTLVTVSS VL: EIVMTQSPATLSVSPGERATFSCRASQSVNSKLAWYQQKPGQAPRLLIYGASRRATGIPDRFSGSGSGTEFTLTISSLQSEDFAVYYCQQYYDWPPLTFGGGTKVEIK	470000 nM	25.6 nM	–	1.72	1.62	1.6	8.31%	57.7%
40566p1.C1 (scFv, V domains shown, tested as scFv-Fc supernatant) VH: DVQLVESGGGVVRPGESLRLSCAASGFTFDNYDMTWVRQAPGEGLEWVSFISSRGTFTYYTDSVKGRFTISRDNSKNTLYLQMNSLRAEDTAIYYCTKDSGEYYFFDYWGLGTLVTVSS VL: ETVMTQSPATLSVSPGERATFSCRASQSVNSKLAWYQQKPGQAPRLLIYGASRRATGIPDRFSGSGSGTEFTLTISSLQSEDFAVYYCQQYYDWPPLTFGGGTKVEIK	465 nM	0.478 nM	–	1.92	1.86	1.74	26.4%	75.3%
40566p1.A9 (scFv, V domains shown, tested as scFv-Fc supernatant) VH: not shown VL: EIVMMQSPATLSVSPGERATFSCRASQSVNSKLAWYQQKPGQAPRLLIYGASRRATGIPDRFSGSGSGTEFTLTISSLQSEDFAVYYCQQYYDWPPLTFGGGTKVEIK	–	0.918 nM	–	1.87	2.02	1.88	19.1%	75.9%
40566p1.G12 (scFv, V domains shown, tested as scFv-Fc supernatant) VH: not shown VL: EIVMTQSPATLSVSPGERATFSCRASQSVNSKLAWYQQKPGQAPRLLIYDASRRATGIPDRFSGSGSGTEFTLTISSLQSEDFAVYYCQQYYDWPPLTFGGGTKVEIK	–	2.07 nM	–	1.58	1.65	1.62	7.52%	68.5%
40566p1.D12 (scFv, V domains shown, tested as scFv-Fc supernatant) VH: not shown VL: EIVMTQSPATLSVSPGERATFSCRASQSVNSKLAWYQQKPGQAPRLLIYGASRRATGIPDRFSGSGSGTEFTLTISSLQSEDFAVYYCQQYYDWPPLTFGGGTKVEIK	–	0.967 nM	–	1.98	1.83	1.96	20.8%	74.8%
40566p1.F1 (scFv, V domains shown, tested as scFv-Fc supernatant; also called 40566p1.Fl) VH: DVQLVESGGGVVRPGESLRLSCAASGFTFDNYDMTWVRQAPGEGLEWVSFISSRGTFTYYTDSVKGRFTISRDNSKNTLYLQMNSLRAEDTAIYYCTKDSGEYYFFDYWGLGTLVTVSS VL: ETVMTQSPATLSVSPGERATFSCRASQSVNGKLAWYQQKPGQAPRLLIYDASRRATGIPDRFSGSGSGTEFTLTISSLQSEDFAVYYCQQYYDWPPLTFGGGTKVEIK	–	0.375 nM	3880 nM	1.83	2.17	1.95	32%	76%
40566p1.C11 (scFv, V domains shown, tested as scFv-Fc supernatant) VH: DVQLVESGGGVVRPGESLRLSCAASGFTFDNYDMTWVRQAPGEGLEWVSFISSRGTFTYYTDSVKGRFTISRDNSKNTLYLQMNSLRAEDTAIYYCTKDSGEYYFFDYWGLGTLVTVSS VL: EIVLTQSPGTLSLSPGERATLSCRASQTVGSKLAWYQQKPGQAPRLLIFSASSRATGIPARFSGSGSGTEFTLTISSLQSEDFAVYYCQQYYDWPPLTFGGGTKVEIK	–	1.97 nM	–	1.87	1.6	1.7	11.9%	64.5%
40566p1.G9 (scFv, V domains shown, tested as scFv-Fc supernatant) VH: DVQLVESGGGVVRPGESLRLSCAASGFTFDNYDMTWVRQAPGEGLEWVSFISSRGTFTYYADSVKGRFTISRDNSKNTLYLQMNSLRAEDTAIYYCAKDSGEYYFFDYWGLGTLVTVSS VL: EIVMTQSPATLSVSPGERATFSCRASQSVNSKLAWYQQKPGQAPRLLIYGASRRATGIPDRFSGSGSGTEFTLTISSLQSEDFAVYYCQQYYDWPPLTFGGGTKVEIK	–	4.8 nM	–	1.82	1.93	1.86	17.8%	70.7%
40769p1.1.H10 (scFv, V domains shown, tested as scFv-Fc supernatant) VH: EVQLLESGGGLVQPGGSLRLSCAAFGFTFSDYEMNWVRQAPGKGLEWVSSISITGSWTGYADSVKGRFTISRDNSKNTLYLQMNNLRAEDTAVYYCANYKSYYGMDVWGQGTTVTVSS VL: not shown	1.95 nM	–	2.85 nM	1.7	0.048	1.96	79%	0.12%
40596p1.H7 (scFv, V domains shown, tested as scFv-Fc supernatant) VH: EVQLLESGGGLVQPGGSLRLSCAASGFDFSTYAMTWVRQAPGKGLEWVAGNGWSGSFTYYADSVKGRFTVSRDNSKNTLYLQMNSLRAEDTAVYYCTRNPGFGEMDVWGQGTTVTVSS VL: EIVLTQSPGTLRLSPGERATLSCRASQTVGTTLAWYQQKPGQAPRLLIHGASTRATDIPDRFSGSGSGTEFTLTISSLQSEDFADYYCQQYKSWPPLTFGGGTKVEIK	86.7 nM	51.6 nM	114 nM	1.94	–	1.89	71.7%	62.8%
